63 sequences from the supplement of paper PMC9112550, “Optimization of the antimicrobial peptide Bac7 by deep mutational scanning” (BMC Biology, 2022) can be followed below.

For the data set, the system named is Escherichia coli TOP10. Description: shrunken log2 fold change of peptide-encoding DNA abundance (4.5 h post-induction vs induction); higher = less antimicrobial activity (less host growth inhibition). The following applies: time post-induction: 4.5 h; library: site-saturation at positions 5, 18, 19, 20.
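Note: peptides expressed intracellularly from a pBAD plasmid library in pooled LB shake-flask culture, induced with 0.3% L-arabinose, DNA abundance read by NGS, three biological replicates, DESeq2 with apeglm shrinkage.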

In the case of RRIRTRPPRLPRPRPRPIYEPRP, the “shrunken log2 fold change” value was -0.246.

With RRIRPRPPRLPRPRPRPMNAPRP, the “shrunken log2 fold change” value was -0.158.

RRIRLRPPRLPRPRPRPRWQPRP: the “shrunken log2 fold change” value came to 0.217.

For RRIRRRPPRLPRPRPRPDFWPRP, the “shrunken log2 fold change” value was determined as 0.647.

In the case of RRIRERPPRLPRPRPRPFQKPRP, the “shrunken log2 fold change” value is -0.178.

In the case of RRIRWRPPRLPRPRPRPKQSPRP, the “shrunken log2 fold change” value stood at 0.698.

For the sequence RRIRFRPPRLPRPRPRPSDSPRP, the “shrunken log2 fold change” value was -0.21.

In the case of RRIRSRPPRLPRPRPRPIYAPRP, the “shrunken log2 fold change” value was determined as 0.0432.

Consider RRIRTRPPRLPRPRPRPTHCPRP, for which the “shrunken log2 fold change” value was determined as 0.0158.

Turning to RRIRIRPPRLPRPRPRPEAEPRP, the “shrunken log2 fold change” value turned out to be 0.677.

For RRIRYRPPRLPRPRPRPNLWPRP, the “shrunken log2 fold change” value amounted to 0.00221.

Regarding RRIRERPPRLPRPRPRPFFFPRP, the “shrunken log2 fold change” value stood at 0.0253.

As to RRIRMRPPRLPRPRPRPQSWPRP, the “shrunken log2 fold change” value was 0.141.

For RRIRERPPRLPRPRPRPSAMPRP, the “shrunken log2 fold change” value was -0.279.

With RRIRHRPPRLPRPRPRPKVHPRP, the “shrunken log2 fold change” value was -0.0663.

As for RRIRKRPPRLPRPRPRPDYKPRP, the “shrunken log2 fold change” value was -0.208.

In the case of RRIRVRPPRLPRPRPRPAGRPRP, the “shrunken log2 fold change” value was 1.22.

RRIRMRPPRLPRPRPRPWQAPRP: the “shrunken log2 fold change” value stood at 0.00735.

For RRIRRRPPRLPRPRPRPRPAPRP, the “shrunken log2 fold change” value was determined as 1.83.

For the sequence RRIRGRPPRLPRPRPRPAQRPRP, the “shrunken log2 fold change” value came to 0.858.

As to RRIRQRPPRLPRPRPRPSQWPRP, the “shrunken log2 fold change” value was -0.02.

Take RRIRFRPPRLPRPRPRPWYMPRP: the “shrunken log2 fold change” value is -0.991.

On to RRIRKRPPRLPRPRPRPENRPRP, for which the “shrunken log2 fold change” value was found to be 0.246.

In the case of RRIRPRPPRLPRPRPRPIQLPRP, the “shrunken log2 fold change” value was -0.0767.

On to RRIRLRPPRLPRPRPRPSLVPRP, for which the “shrunken log2 fold change” value is -0.0388.

On to RRIRSRPPRLPRPRPRPRHGPRP, for which the “shrunken log2 fold change” value stood at 0.196.

For RRIRGRPPRLPRPRPRPAYKPRP, the “shrunken log2 fold change” value is -0.202.

Take RRIRYRPPRLPRPRPRPRNHPRP: the “shrunken log2 fold change” value is -0.336.

For RRIRSRPPRLPRPRPRPLKYPRP, the “shrunken log2 fold change” value is -0.653.

Regarding RRIRIRPPRLPRPRPRPWTPPRP, the “shrunken log2 fold change” value was -0.179.

As for RRIRHRPPRLPRPRPRPCVRPRP, the “shrunken log2 fold change” value was -0.504.

Turning to RRIRYRPPRLPRPRPRPYFTPRP, the “shrunken log2 fold change” value was -0.981.

Consider RRIRPRPPRLPRPRPRPKTCPRP, for which the “shrunken log2 fold change” value is -0.124.

On to RRIRKRPPRLPRPRPRPGFEPRP, for which the “shrunken log2 fold change” value amounted to 0.32.

RRIRQRPPRLPRPRPRPRHIPRP: the “shrunken log2 fold change” value is -0.319.

With RRIRGRPPRLPRPRPRPKRHPRP, the “shrunken log2 fold change” value amounted to 1.

For RRIRVRPPRLPRPRPRPRYRPRP, the “shrunken log2 fold change” value was -0.0212.

Regarding RRIRTRPPRLPRPRPRPHARPRP, the “shrunken log2 fold change” value amounted to 0.158.

Regarding RRIRFRPPRLPRPRPRPDCQPRP, the “shrunken log2 fold change” value came out at 0.0422.

Consider RRIRIRPPRLPRPRPRPNQNPRP, for which the “shrunken log2 fold change” value was -0.391.

With RRIRRRPPRLPRPRPRPMCGPRP, the “shrunken log2 fold change” value is -0.0233.

Consider RRIRNRPPRLPRPRPRPVLWPRP, for which the “shrunken log2 fold change” value was determined as 0.00135.

On to RRIRDRPPRLPRPRPRPAPQPRP, for which the “shrunken log2 fold change” value turned out to be 0.983.

Regarding RRIRGRPPRLPRPRPRPNIRPRP, the “shrunken log2 fold change” value is -0.135.

As for RRIRRRPPRLPRPRPRPWPNPRP, the “shrunken log2 fold change” value is -0.0193.

In the case of RRIRHRPPRLPRPRPRPGSSPRP, the “shrunken log2 fold change” value came to 0.0127.

For RRIRNRPPRLPRPRPRPKFWPRP, the “shrunken log2 fold change” value was 0.177.

For RRIRSRPPRLPRPRPRPWDMPRP, the “shrunken log2 fold change” value was -0.254.

In the case of RRIRCRPPRLPRPRPRPWSAPRP, the “shrunken log2 fold change” value was -0.308.

Turning to RRIRTRPPRLPRPRPRPHEQPRP, the “shrunken log2 fold change” value came out at 0.177.

Regarding RRIRPRPPRLPRPRPRPQENPRP, the “shrunken log2 fold change” value was -0.125.

With RRIRYRPPRLPRPRPRPLTHPRP, the “shrunken log2 fold change” value is -0.845.

RRIRPRPPRLPRPRPRPHSKPRP: the “shrunken log2 fold change” value was -0.14.

As for RRIRFRPPRLPRPRPRPIHRPRP, the “shrunken log2 fold change” value is -0.0271.

For the sequence RRIRRRPPRLPRPRPRPPIDPRP, the “shrunken log2 fold change” value worked out at 0.144.

Consider RRIRFRPPRLPRPRPRPQRIPRP, for which the “shrunken log2 fold change” value is -0.695.

As for RRIRKRPPRLPRPRPRPCGCPRP, the “shrunken log2 fold change” value is 0.249.

Consider RRIRNRPPRLPRPRPRPRFRPRP, for which the “shrunken log2 fold change” value is 0.0503.

For RRIRIRPPRLPRPRPRPWYHPRP, the “shrunken log2 fold change” value is -0.351.

As to RRIRSRPPRLPRPRPRPPICPRP, the “shrunken log2 fold change” value came to 0.635.

In the case of RRIRCRPPRLPRPRPRPMLTPRP, the “shrunken log2 fold change” value was -0.0319.

In the case of RRIRVRPPRLPRPRPRPFWVPRP, the “shrunken log2 fold change” value came to 0.421.

With RRIRHRPPRLPRPRPRPLGIPRP, the “shrunken log2 fold change” value is -0.148.
